Experimental data as given in the DeepSol protein solubility set.

Assay: soluble on expression in E. coli; label from the status in PepcDB or PDB records

Row | Sequence | soluble on expression in E. coli
1 | MGSDKIHHHHHHMQVYPLIMNKLVMPAASRFTDLKIWDEYKVMLKSERLSLEQLRQMQLTKLQTIVRHAYENVPFYRQRFDSIGLHPEDIKSIEDIERIPPTTKDDIMANFPEGITAGGMDRNRWKYVASSGTTRKIMGIHDFRKSTLNWAAGIRAHRLAGNHRMGMKWMEIPPHMCTTICGINDGPKGEKLSTKKLVSLVKEGDFGGAGRHVYEGLYSMRHDLYKRVTLPSFGPEGTNIPESDIVSYLDSIRSYQPHLLEGLPLYLYTFAKYILDKGISAPRVGVIKPFGGSLTPYMKQIIATAFGCEVYDTYGCSELGFMAADCPKHEGVHLFMDLYHVEVRHGDRAAAPGELGKFYVTDLENRAMPWIRYEIGDVGRYFEDDHGCGRRGIRLEVEGRVQDTLVNSQGRFFTSDEVFDFFHRREEIDNFQLTEKSAGRYELLCVPVEGKEVDREGIARDFREFFDTEANVKAYAVKTIKAEDGGKFRFIKAKGHDRL | not soluble
2 | MGSDKIHHHHHHMPKRRLPSLNALRAFESAARNQSMTRAAEELCVTHSAISRHVAKLEDYLNAKLFERGHQQVVLTKRGAAYASRLQVLFDQIQDVTAEYFYARPDNASLRIGVLSTFAMRFLIPRLARFKKLYPEITLQVESAHEHVSPRDEEVDVAIWFGNGDWPGLVSEHLFHEELVPVGSPTLLAGHELGNPDDLESFLLLHAAARHDDWQRWLSATGATRVDGYKGLKLEYSGLAYQGAVDGLGLAMAQTLFVQEDLANRRLVAALPQRVKTGRSYYLVHNEMKSEQPVILRFSEWLKDEVRKTIEEIDRTQAEHIEVV | not soluble
3 | MGHHHHHHSHMETIGAKALEDFADNIKNDPDKEYNMPKDGTVHELTSNAILFLQQLLDFQETAGAMLASQETSSSATSYSSEFSKRLLSTYICKVLGNLQLNLLSKSKVYEDPALSAIFLHNNYNYILKSLEKSELIQLVAVTQKTAERSYREHIEQQIQTYQRSWLKVTDYIAEKNLPVFQPGVKLRDKERQIIKERFKGFNDGLEELCKIQKAWAIPDTEQRDRIRQAQKTIVKETYGAFLQKFGSVPFTKNPEKYIKYGVEQVGDMIDRLFDTSA | not soluble
4 | GQTTIQVRVPYRVVGLVVGPKGATIKRIQQRTHTYIVTPGRDKEPVFAVTGMPENVDRAREEIEAHITLR | soluble
5 | LRSNIDLFYTPGEILYGKRETQQMPEVGQRLRVGGMVMPGSVQRDPNSLKVTFTIYDAEGSVDVSYEGILPDLFREGQGVVVQGELEKGNHILAKEVLAKHDENYTPPEVEKAMEANHRRPASVYKDPASHHHHHH | soluble
6 | MFKKIATILGSTLFGTVLFAKVKEKRSYKSFLQEKMIRISGMKKTFESIDDAKKALNETKYQTAGKYNGTTYEFKHKVQIRDYYGSLVYVVNDHGLPDQRTVLYVHGGAWFQDPLENHFEYLDLLVDALDARVIMPVYPKIPHRDYRTTFELLTKIYKRLLTKIDEPENLVIIGDSAGGQIALAFAQMLKKEQLSQPGHIVLISPVLDATFKNPEARKYEKEDPMLGIDGSKYLVELWAGDAPLDDYKMSPMNGDLEGLGHITLTVGTKETLYPDAVKFSHMLNDKGIKHQFIPGYNLFHIYPLFPIPERQRFLEQLKKIIVTKEL | not soluble
7 | GSSGSSGAAFAKILDPAYQVDKGGRVRFVVELADPKLEVKWYKNGQEIRPSTKYIFEHKGCQRILFINNCQMTDDSEYYVTAGDEKCSTELFVRSGPSSG | soluble
8 | MIRFLGNIEVRADAKGRVFIPATFRKQLQAASEERLIMRKDVFQDCLTLYPESVWNEELNELRSRLNKWNSKHQLIFRQFVSDVEVVTPDSNGRILIPKRYLQICNIRGDIRFIGIDNKIEIWAKERAEQPFMSPEEFGAALEEIMNDENRQDGER | not soluble
9 | QMEEGFVCFKLLYDVKKNRISIDDAVAENGVLPLMKHISWQFDKLPHMLIAGGTGGGKTYFMLTIIKACVGLGADVRILDPKNADLADLEEVLPKKVYSQKNGILMCLRKSVDGMMERMDEMKQMSNYKTGENYAYLGLKPVFIFFDEYVAFMDLLDMKERNEALSYMKQLVMLGRQAGYFLVLGAQRPDA | not soluble
10 | MGSDKIHHHHHHMAGVTAPLLGLQKKSLREQALSALRTAITSGELEPGRHLVETELSDMLQISRGTLREALRQLEQEGLLSAGPRGRLSVRHLDAKEIRDIYSVRAALESLAARTLCELPDRQHVIGSLRAAIGAMDAAAKGSLEDRIESDLEFHRTLCRLTGNETLLHSWESLEGSIRMSIMFAGLEKGVSNMSVDRHHDIVAAIETGDGSLARKTIREHMDTAADNLVA | not soluble
11 | MIWNEHHECMGRDQLASLQGERLRQMVERIYYNVPFYRNKLQEMGIEPGDIRSIDDLKKLPFTTKQDLRDNYPFGLFAVPQQDIVRFHASSGTTGKSTVVGYTHNDIMMWSEVVARSLTMAGVTKHDIIQVAYGYGLFTGGLGLHYGAEKIGASVIPISGGNTKKQLQLLEDFGSTAIACTPSYAAYLGEAIMEEKLDRSKIKLKAGIFGAEPWTEEMRSQIQQLLGIKAYDIYGLSEVIGPGVSMECSIQHGMHVFEDHFIPEIINPETGEVLPYGELGELVFTAVTKEALPLLRYRTRDLTRLHVERCDCGRTLVRMEKCVGRSDDMLIIRGVNVFPSQVESVLLEMSETKPHYLLVVDRQNNLDTLEIQVEVEDQFFSDEVKELEGLRKRISGNLTSILGLHANVRLVEPGTIERSQGKAQRVVDKRKLNEHKETP | not soluble
12 | MGSDKIHHHHHHMADKKRLDQLVLERGLVESREKAKVLILAGKVLVNGERVTKASKLVPEDANVELLEEPKYVSRGGYKLESAFESFKIDVSGKVACDIGASTGGFTDFLLQRGAKKVYAVDVGYGQLHWKLRNDPRVVVMEKVNARYLNPDDLGEKVDVVTCDVSFISLKKIIPAISRILKNIGDAVLLVKPQFEAPRKFVKKGIVKDPGVHLEVLEEIRKSLIENGFVVKGCCFSKIKGTEGNIEYFFWVKKEGENAEIDLRKIVEEAWRFFGERER | not soluble
13 | MAKVCYFTGRKTSSGNNRSHAMNSTKRTVKPNLQKVRVLIDGKPKKVWVSTRALKSGKIERVLEHHHHHH | not soluble
14 | MNITKIDWQKVNGLLPVIIQNISTREVLMLGYMNEEALTKTIKERKVTFFSRTKQRLWTKGEISGNFLNVEEMSLDCDNDTLLILVDPIGATCHTGEYSCFHQFTSPQSENKKQQFANWAWFIKLEQHLKEKKNADPSNSYTATLHAKGTKKIAQKVGEEGVETALAAVAQDKAEVISEATDLVYHLTVLLHNQDLQWYEIIAKLQERHQGIGLHPEGGNK | soluble
15 | MNYKLTLHPGSNPVEEFTSIPHGVTSLDLSLNNLYSISTVELIQAFANTPASVTSLNLSGNSLGFKNSDELVQILAAIPANVTSLNLSGNFLSYKSSDELVKTLAAIPFTITVLDLGWNDFSSKSSSEFKQAFSNLPASITSLNLRGNDLGIKSSDELIQILAAIPANVNSLNLRGNNLASKNCAELAKFLASIPASVTSLDLSANLLGLKSYAELAYIFSSIPNHVVSLNLCLNCLHGPSLENLKLLKDSLKHLQTVYLDYDIVKNMSKEQCKALGAAFPNIQKIILVDKNGKEIHPSHSIPISNLIRELSGKADVPSLLNQCLIFAQKHQTNIEDLNIPDELRESIQTCKPLLEHHHHHH | soluble
16 | MCEIFAKQPQDNYQFITRSIRIDGHATSVKLESSFWTILEEIASAQDMTVPKFISTVYQEALEYNGEVNNFASLLRCACLTYARQPENTLHQALAQLN | not soluble
17 | VLLHSKEVAYIAGLMAEELGLDAKLARRAGLLHDIGKAISHELGGSHTDIGVELARKYGEPDAVINAIRAHHEEEPVRYPEVALVCAADALSAA | not soluble
18 | GPGSMCVCASDCVTPMKRDTKGKLSYDMEPAEHRLSSSRSSSCNVVMTAADELAMQINDCRSLFPCIDAGSAVASIRPTSPSGRTVVARVPWTKSTGTTQTPAPEPTRCAVEVRFGYAEGFVCDEKVYEALLPLLLENGLQGAACVVDSDVSDS | not soluble
19 | MKKYYVRCKDSKGENASLVIEALSPEHAKEQAYEVYEVGDIYNVSLGEGKSKNCLDRKYSPYIKNDNGKAITIFSLEHHHHHH | not soluble
